Assay results taken from the DeepSol protein solubility set.

Test: soluble on expression in E. coli; label from the status in PepcDB or PDB records

Sequence | soluble on expression in E. coli
GSHMKISEFLHLALPEEQWLPTISGVLRQFAEEECYVYERPPCWYLGKGCQARLHINADGTQATFIDDAGEQKWAVDSIADCARRFMAHPQVKGRRVYGQVGFNFAAHARGIAFNAGEWPLLTLTVPREELIFEKGNVTVYADSADGCRRLCEWVKEASTTTQNAPLAVDTALNGEAYKQQVARAVAEIRRGEYVKVIVSRAIPLPSRIDMPATLLYGRQANTPVRSFMFRQEGREALGFSPELVMSVTGNKVVTEPLAGTRDRMGNPEHNKAKEAELLHDSKEVLEHILSVKEAIAELEAVCLPGSVVVEDLMSVRQRGSVQHLGSGVSGQLAENKDAWDAFTVLFPSITASGIPKNAALNAIMQIEKTPRELYSGAILLLDDTRFDAALVLRSVFQDSQRCWIQAGAGIIAQSTPERELTETREKLASIAPYLMV | soluble
GSHMLTKQQIRYCLDEMAKMFPDAHCELVHRNPFELLIAVVLSAQCTDALVNKVTKRLFEKYRTPHDYIAVPLEELEQDIRSIGLYRNKARNIQKLCAMLIDKYNGEVPRDRDELMKLPGVGRKTANVVVSVAFGVPAIAVDTHVERVSKRLGFCRWDDSVLEVEKTLMKIIPKEEWSITHHRMIFFGRYHCKAQSPQCPSCPLLHLCREGKKRMRKREEKAANQK | soluble
GSHMNQCPEHSQLTTLGVDGKEFPEVHLGQWYFIAGAAPTKEELATFDPVDNIVFNMAAGSAPMQLHLRATIRMKDGLCVPRKWIYHLTEGSTDLRTEGRPDMKTELFSSSCPGGIMLNETGQGYQRFLLYNRSPHPPEKCVEEFKSLTSCLDSKAFLLTPRNQEACELSNN | soluble
GSHMSETDLLMKMVRQPVKLYSVATLFHEFSEVITKLEHSVQKEPTSLLSEENWHKQFLKFAQALPAHGSASWLNLDDALQAVVGNSRSAFLHQLIAKLKSRHLQVLELNKIGSEPLDLSNLPAPFYVLLPESFAARITLLVQDKALPYVRVSMEYWHALEYKGELNDPAANKARKEAELAAATAEQ | soluble
GSHMTALDWRSALTADEQRSVRALVTATTAVDGVAPVGEQVLRELGQQRTEHLLVAGSRPGGPIIGYLNLSPPRGAGGAMAELVVHPQSRRRGIGTAMARAALAKTAGRNQFWAHGTLDPARATASALGLVGVRELIQMRRPLRDIPEPTIPDGVVIRTYAGTSDDAELLRVNNAAFAGHPEQGGWTAVQLAERRGEAWFDPDGLILAFGDSPRERPGRLLGFHWTKVHPDHPGLGEVYVLGVDPAAQRRGLGQMLTSIGIVSLARRLGGRKTLDPAVEPAVLLYVESDNVAAVRTYQSLGFTTYSVDTAYALAGTDN | soluble
GSHMTIQKVHGREVLDSRGNPTVEVEVTTEKGVFRSAVPSGASTGVYEACELRDGDKKRYVGKGCLQAVKNVNEVIGPALIGRDELKQEELDTLMLRLDGTPNKGKLGANAILGCSMAISKAAAAAKGVPLYRYLASLAGTKELRLPVPCFNVINGGKHAGNALPFQEFMIAPVKATSFSEALRMGSEVYHSLKGIIKKKYGQDAVNVGDEGGFAPPIKDINEPLPILMEAIEEAGHRGKFAICMDCAASETYDEKKQQYNLTFKSPEPTWVTAEQLRETYCKWAHDYPIVSIEDPYDQDDFAGFAGITEALKGKTQIVGDDLTVTNTERIKMAIEKKACNSLLLKINQIGTISEAIASSKLCMENGWSVMVSHRSGETEDTYIADLVVALGSGQIKTGAPCRGERTAKLNQLLRIEEELGAHAKFGFPGWS | soluble
GSHMTYPKYLLSPETIEALRKPTFDVWLWEPNEMLSCLEHMYHDLGLVRDFSINPVTLRRWLFCVHDNYRNNPFHNFRHCFCVAQMMYSMVWLCSLQEKFSQTDILILMTAAICHDLDHPGYNNTYQINARTELAVRYNDISPLENHHCAVAFQILAEPECNIFSNIPPDGFKQIRQGMITLILATDMARHAEIMDSFKEKMENFDYSNEEHMTLLKMILIKCCDISNEVRPMEVAEPWVDCLLEEYFMQSDREKSEGLPVAPFMDRDKVTKATAQIGFIKFVLIPMFETVTKLFPMVEEIMLQPLWESRDRYEELKRIDDAMKELQKK | soluble
GSHSLRYFDIAVSRPGLGEPRYISVGYVDDTEFARYDSDAENRRYQPRARWMEREGPEYWERNTPIYKGKEQTFRVNLRTLRGYYNQSEGGSHTIQEMYGCDVGSDGSLLRGYEQFAYDGRDYIALNEDLKTWTAADFAARISRNKLERDGFADLHRAYLEGECVESLRRYLELGKETLLRSDPPKAHVTLHPRPEGDVTLRCWALGFYPADITLTWQLNGEDLTQDMELVETRPAGDGTFQKWASVVVPLGKEQNYTCRVEHEGLPKPLSQRWEPLEHHHHHH | soluble
GSMDQRQKLQHWIHSCLRKADKNKDNKMNFKELKDFLKELNIQVDDGYARKIFRECDHSQTDSLEDEEIETFYKMLTQRAEIDRAFEEAAGSAETLSVERLVTFLQHQQREEEAGPALALSLIERYEPSETAKAQRQMTKDGFLMYLLSADGNAFSLAHRRVYQDMDQPLSHYLVSSSHNTYLLEDQLTGPSSTEAYIRALCKGCRCLELDCWDGPNQEPIIYHGYTFTSKILFCDVLRAIRDYAFKASPYPVILSLENHCSLEQQRVMARHLRAILGPILLDQPLDGVTTSLPSPEQLKGKILLKGKKLGGLLPAGGENGSEATDVSDEVEAAEMEDEAVRSQVQHKPKEDKLKLVPELSDMIIYCKSVHFGGFSSPGTSGQAFYEMASFSESRALRLLQESGNGFVRHNVSCLSRIYPAGWRTDSSNYSPVEMWNGGCQIVALNFQTPGPEMDVYLGCFQDNGGCGYVLKPAFLRDPNTTFNSRALTQGPWWRPERLRVRIISGQQLPKVNKNKNSIVDPKVIVEIHGVGRDTGSRQTAVITNNGFNPRWDMEFEFEVTVPDLALVRFMVEDYDSSSKNDFIGQSTIPWNSLKQGYRHVHLLSKNGDQHPSATLFVKISIQD | soluble
GSMEPGPDGPAASGPAAIREGWFRETCSLWPGQALSLQVEQLLHHRRSRYQDILVFRSKTYGNVLVLDGVIQCTERDEFSYQEMIANLPLCSHPNPRKVLIIGGGDGGVLREVVKHPSVESVVQCEIDEDVIQVSKKFLPGMAIGYSSSKLTLHVGDGFEFMKQNQDAFDVIITDSSDPMGPAESLFKESYYQLMKTALKEDGVLCCQGECQWLHLDLIKEMRQFCQSLFPVVAYAYCTIPTYPSGQIGFMLCSKNPSTNFQEPVQPLTQQQVAQMQLKYYNSDVHRAAFVLPEFARKALNDVS | soluble
GSMEPPNLYPVKLYVYDLSKGLARRLSPIMLGKQLEGIWHTSIVVHKDEFFFGSGGISSCPPGGTLLGPPDSVVDVGSTEVTEEIFLEYLSSLGESLFRGEAYNLFEHNCNTFSNEVAQFLTGRKIPSYITDLPSEVLSTPFGQALRPLLDSIQIQPPGGSSVGRPNGQS | soluble
GSMPKPGILKSKSMFCVIYRSSKRDQTYLYVEKKDDFSRVPEELMKGFGQPQLAMILPLDGRKKLVNADIEKVKQALTEQGYYLQLPPPPEDLLKQHLSVMGQKTDDTNK | soluble
GSMTEADVNPKAYPLADAHLTKKLLDLVQQSCNYKQLRKGANEATKTLNRGISEFIVMAADAEPLEIILHLPLLCEDKNVPYVFVRSKQALGRACGVSRPVIACSVTIKEGSQLKQQIQSIQQSIERLLV | soluble
GSPGISGGGGGSHIEGYECQPIFLNVLEAIEPGVVCAGHDNNQPDSFAALLSSLNELGERQLVHVVKWAKALPGFRNLHVDDQMAVIQYSWMGLMVFAMGWRSFTNVNSRMLYFAPDLVFNEYRMHKSRMYSQCVRMRHLSQEFGWLQITPQEFLCMKALLLFSIIPVDGLKNQKFFDELRMNYIKELDRIIACKRKNPTSCSRRFYQLTKLLDSVQPIARELHQFTFDLLIKSHMVSVDFPEMMAEIISVQVPKILSGKVKPIYFHTQ | soluble
GSQITGTCPSGCSGDCYPECPPGCCGQVNLN | soluble
GSSGSSGMSSMTQNLREVMKVMFKVPGFDRVLEKVTLVSAAPEKLICEMKVEEQHTNKLGTLHGGLTATLVDSISTMALMCTERGAPGVSVDMNITYMSPAKIGEEIVITAHILKQGKTLAFASVDLTNKTTGKLIAQGRHTKHLGNSGPSSG | soluble
GSSHHHHHHSSGLVPRGSQILCVGLVVLDVISLVDKYPKEDSEIRCLSQRWQRGGNASNSCTILSLLGAPCAFMGSMAPGHVADFVLDDLRRYSVDLRYTVFQTTGSVPIATVIINEASGSRTILYYDRSLPDVSATDFEKVDLTQFKWIHIEGRNASEQVKMLQRIDAHNTRQPPEQKIRVSVEVEKPREELFQLFGYGDVVFVSKDVAKHLGFQSAEEALRGLYGRVRKGAVLVCAWAEEGADALGPDGKLLHSDAFPPPRVVDTLGAGDTFNASVIFSLSQGRSVQEALRFGCQVAGKKCGLQGFDGIV | soluble
GSSPNLRYPIADVSGGIGMSPNYRFRQSMWIGIVSYSGSGLNWRVQVNSDIFIVNDYIHICLPAFDGFSIADGGDLSLNFVTGLLPPLLTGDTEPAFHNDVVTYGAQTVAIGLSSGGTPQYMSKNLWVEQWQDGVLRLRVEGGGSITHSNSKWPAMTVSYPRSFT | soluble
GSVAVEDQPDVSAVLSAYNQQGDPTMYEEYYSGLKHFIECSLDCHRAELSQLFYPLFVHMYLELVYNQHENEAKSFFEKFHGDQECYYQDDLRVLSSLTKKEHMKGNETMLDFRTSKFVLRISRDSYQLLKRHLQEKQNNQIWNIVQEHLYIDIFD | soluble
GVKCEPIEELTISVPEEYSSKMIDMVTRRKGDLVSMETQGDRVNIEFDMPSRGIIGLRTNVLTASAGEAIMAHRFKCYQPYKGEIERRSNGSMIAMESGTAFAYAIDKLQDRGKFFIYPQDEVYAGQV | not soluble
GVTGISTGFIDLNKKTAGLQPSDLIIVAARPSMGKTTFAMNLCENASLHDIEDHNDLDENGNPRKKPAKPVLIFSLEMPADQIMMRMLASLSRVNQTKIRTGQIHDDEEWAKISSTVAILQERKNIFIDDSAGLTPTELRSRARRIYRENGGLSLIMVDYLQLMRVPNFSDNRTLEIAEISRSLKALAKELEVPVVALSQLNRSLEQRQDKRPVNSDL | not soluble
HDDGLPAFRYSAELLGQLQLPSVALPLNDDLFLYGRDAEAFDLEAYLALNAPALRDKSEYLEHWSGYYSINPKVLLTLMVMQSGPLGAPDERALAAPLGRLSAKRGFDAQVRDVLQQLSRRYYGFEEYQLRQAAARKAVGEDGLNAASAALLGLLREGAKVSAVQGGNPLGAYAQTFQRLFGTPAAELLQPSNRVARQLQAKAALAPPSNLMQLPWRQGYSWQPNGAHSNTGSGYPYSSFDASYDWPRWGSATYSVVAAHAGTVRVLSRCQVRVTHPSGWATNYYHMDQIQVSNGQQVSADTKLGVYAGNINTALCEGGSSTGPHLHFSLLYNGAFVSLQGASFGPYRINVGTSNYDNDCRRYYFYNQSAGTTHCAFR | not soluble
HERRTVLAEWSIGIDIGGTFTDLVALDYAGGKLHSLKMLTTYDDPSLAVMEGVRQLMATCGIAASEVGRVVHATTLFTNALISRAGARTGLLCNQGFMDAIEIGNERKYDLYDLAIDRPPPLVPRDLRREIPGRLDAHGNELEPLDRQAVVAMARSLADAGATSIAVCLLHAYASPRHEQQVHAWIRQAL | not soluble
HGPKTGTPETKTVEIPFETKREFNPKLQPGEERVKQEGQPGSKTITTPITVNPLTGEKVGEGQPTEEITKQPVDKIVEFGGEK | soluble
